Experimental data: PMC9490022, “Enhanced salt-tolerance of Bacillus subtilis glutaminase by fusing self-assembling amphipathic peptides at its N-terminus” (Frontiers in Bioengineering and Biotechnology, 2022)

B1: E3C/E55F/D213T (Bacillus subtilis subsp. subtilis str. 168; D213T/E3C/E55F) (protein)
chain: MKCLIKEHQKDINPALQLHDWVEYYRPFAANGQSANYIPALGKVNDSQLGICVLFPDGTMIHAGDWNVSFTMQSISKVISFIAACMSRGIPYVLDRVDVEPTGDAFNSIIRLEINKPGKPFNPMINAGALTIASILPGESAYEKLEFLYSVMETLIGKRPRIHEEVFRSEWETAHRNRALAYYLKETNFLEAEVEETLEVYLKQCAMESTTETIALIGLILAHDGYHPIRHEQVIPKDVAKLAKALMLTCGMYNASGKYAAFVGVPAKSGVSGGIMALVPPSARREQPFQSGCGIGIYGPAIDEYGNSLTGGMLLKHMAQEWELSIF
notes: full-length triple mutant, N-terminal His-tag kept, expressed in B. subtilis WB600 (pP43NMK), about 40 kDa
B2: EAK16-E3C/E55F/D213T (Bacillus subtilis subsp. subtilis str. 168; D213T/E3C/E55F) (protein)
chain: KCLIKEHQKDINPALQLHDWVEYYRPFAANGQSANYIPALGKVNDSQLGICVLFPDGTMIHAGDWNVSFTMQSISKVISFIAACMSRGIPYVLDRVDVEPTGDAFNSIIRLEINKPGKPFNPMINAGALTIASILPGESAYEKLEFLYSVMETLIGKRPRIHEEVFRSEWETAHRNRALAYYLKETNFLEAEVEETLEVYLKQCAMESTTETIALIGLILAHDGYHPIRHEQVIPKDVAKLAKALMLTCGMYNASGKYAAFVGVPAKSGVSGGIMALVPPSARREQPFQSGCGIGIYGPAIDEYGNSLTGGMLLKHMAQEWELSIF
notes: N-terminal His-tag, designed peptide EAK16 (…) and PT linker (…) fused to N-terminus of triple mutant; expressed in B. subtilis WB600; oligomerises

Substrate: NC(=O)CC[C@H](N)C(=O)O
Test: purified protein
Format: biochemical, Bacillus subtilis
Details: 10–100 mM L-glutamine, 20 mM potassium phosphate, pH 7.5, 37°C, no NaCl

Protein	Km [mM]	kcat [s⁻¹]	kcat/Km [M⁻¹ s⁻¹]
B1	22.72 ± 1.5	3730 ± 190	162000 ± 3240
B2	18.45 ± 1.2		174000 ± 4200
